The record followed here is publication PMC12173945, “Import mechanism of peroxisomal proteins with an N-terminal signal sequence” (Nature Cell Biology, 2025).

For assay [1], the system named is peroxisomes in Xenopus egg extract. The experiment in a line: Peroxisomal protein import assay in Xenopus egg extract. The assay is classed as biochemical, Xenopus laevis. Conditions: GFP fusion, 1 h. As for the experimental part: Import reactions were performed exactly as described in a previously published protocol. Briefly, extract was mixed with 500 nM of the indicated cargo and 100 nM of the indicated receptor variants with or without 100 nM PEX7, and incubated at 24 °C. Where stated, endogenous PEX5 was first depleted from the extract using agarose beads covalently conjugated to the high-affinity PEX5-binding domain from PEX14. Recombinant proteins were diluted in XBHS buffer (40 mM HEPES·KOH pH 7.7 at RT, 100 mM KCl, 1 mM MgCl2, 0.1 mM CaCl2 and 250 mM sucrose) before being added to the reactions. For imaging, an aliquot of each reaction was sandwiched between two 22 × 22 mm no. […] The samples were illuminated by an 80-mW solid-state 488-nm laser through a Di01-T405/488/568/647 dichroic (Semrock), and fluorescence was collected through a Nikon ×100 1.45 NA Plan Apo Lambda oil-immersion objective and a green-emission ET525/50 m (525 ± 25 nm) single-band bandpass filter (Chroma). […]
To calculate import rates in Xenopus egg extract, images were first thresholded to identify peroxisomes that were within the focal plane. A circular area with a diameter of 3 pixels was then centred on each local maximum and the mean fluorescence within this area was measured; the average fluorescence in the cytosol was then subtracted from the measured values. […]

Assay [2] has as its system YG hydrogel (wild-type YG-domain polypeptide of PEX13). The assay is described as follows: YG hydrogel permeation assay, wild-type hydrogel (Fig. 2, Fig. 3g, Extended Data Fig. 9d). Conditions: wild-type hydrogel. As to the method:
A solution of the purified wild-type YG-domain polypeptide (or the variant lacking the KPWE motif) was concentrated to 2 mM in 50 mM HEPES·NaOH pH 7.8 at RT, 2 M urea and 2 mM TCEP. Aliquots of 2 µl were then spotted on the bottom of multiple wells of a 96-well glass-bottomed plate (Cellvis, P96-1.5H-N), which was then sealed with a gas-impermeable AlumaSeal II film (Hampton Research, HR8-069) to prevent desiccation and incubated at RT for 24 h. Before each assay, the resulting gels were equilibrated overnight at RT in a 100-fold excess of Assay Buffer (25 mM HEPES·NaOH pH 7.8 at RT, 150 mM NaCl and 1 mM TCEP). A 0.5 µM solution of fluorescently labelled protein in Assay Buffer was then added to the samples, with or without additional components at the concentrations indicated in the text, and incubated at RT. Gels were imaged at the times indicated in the text using a Nikon A1R point-scanning confocal system consisting of an inverted Nikon Eclipse Ti microscope and a Nikon ×20 0.75 NA Plan Apo air objective. The objective was centred on the gel edge and focus was maintained 5 µm above the glass surface using the Nikon Perfect Focus System. Fluorescence was excited through a 405/488/561/647 quad-band dichroic (Chroma), using a 488-nm solid-state laser (Coherent) and a galvano scanner. A 50-nm emission band was collected on a gallium arsenide phosphide detector, using an ET525/50m (525 ± 25 nm) single-band bandpass filter (Chroma) and a pinhole dilated to 0.9 Airy units. Images were acquired using the Nikon NIS-Elements software with a pixel size of 1 µm and a 12-bit digitizer. Imaging parameters were configured to maximize the SNR while avoiding saturation. All samples intended to be compared were imaged using identical acquisition settings.
(§1) For the YG hydrogel permeation assay, images were first oriented such that each gel edge faced the same direction. Fluorescence profiles across the buffer–gel interface were then generated by centering a 60 × 300 µm rectangular area on the gel edge and then measuring the mean fluorescence at each position within this selection. To express the resulting values in terms of fold enrichment, the fluorescence at each position along the selection was normalized to the average fluorescence in the buffer and plotted in terms of the distance from the gel edge.
To calculate permeation rates through the YG hydrogel, a 60 × 300 µm rectangular area was first centred on the gel edge. The resulting region was then thresholded to demarcate the permeation zone (that is, the distance traversed by the fluorescent species) from the buffer and non-permeated part of the gel. The width of the area above the threshold was then measured and plotted as a function of time. A linear fit to the data yielded the permeation rate.

Assay [3] relates to YG hydrogel (∆KPWE YG-domain polypeptide of PEX13). The assay is described as follows: YG hydrogel permeation assay, hydrogel lacking the KPWE motif (Fig. 3g). Conditions: 1 h. As to the method: A solution of the purified wild-type YG-domain polypeptide (or the variant lacking the KPWE motif) was concentrated to 2 mM in 50 mM HEPES·NaOH pH 7.8 at RT, 2 M urea and 2 mM TCEP. Aliquots of 2 µl were then spotted on the bottom of multiple wells of a 96-well glass-bottomed plate (Cellvis, P96-1.5H-N), which was then sealed with a gas-impermeable AlumaSeal II film (Hampton Research, HR8-069) to prevent desiccation and incubated at RT for 24 h. Before each assay, the resulting gels were equilibrated overnight at RT in a 100-fold excess of Assay Buffer (25 mM HEPES·NaOH pH 7.8 at RT, 150 mM NaCl and 1 mM TCEP). […] Fluorescence was excited through a 405/488/561/647 quad-band dichroic (Chroma), using a 488-nm solid-state laser (Coherent) and a galvano scanner. […]
as §1

B1: PEX7–GFP: PEX7 fused at the C terminus to a linker (SGSG) followed by mEGFP (protein)
chain: MLRYHMQGFSGYGVQYSPFFDNRLAVAAGSNFGLVGNGKLFILEIDRSGRIVEVNSFLTQDCLFDLAWNESHENQVLVAQGDGTLRLFDTTFKEFPIAIFKEHEREVFSCNWNLVNRQNFLSSSWDGSIKIWSPLRKQSLMTLTPRPLEITKMVDPLNAIILKKKSFTGISKNRNCVYQAQFSPHDQNLVLSCSGNSYASLFDIRLPSGKNQNNFLVHSGLEALTCDFNKYRPYVVATGGVDNAIRIWDIRMLNKNESATIKRTVPGQLHNSSCINEIPNAHGLAIRKVTWSPHHSNILMSASYDMTCRIWRDLSNDGAKETYKTNSTDATKGSIFNFTQHSEFVFGADWSLWGKPGYVASTAWDGNLFVWNGLG
modifications: left off: GST, N-terminal, cleaved | GFP, C-terminal, kept
With B1, in assay [1], the “Import into peroxisomes in Xenopus egg extract” value is “enters peroxisomes only when it is assembled into a complex with PEX5 and cargo”. Besides, in assay [2], the “Entry into YG hydrogel” value was “readily entered the phase”.

B2: PEX7: full-length PEX7 from S. cerevisiae (GenBank accession no. NP_010426.1) (protein)
chain: MLRYHMQGFSGYGVQYSPFFDNRLAVAAGSNFGLVGNGKLFILEIDRSGRIVEVNSFLTQDCLFDLAWNESHENQVLVAQGDGTLRLFDTTFKEFPIAIFKEHEREVFSCNWNLVNRQNFLSSSWDGSIKIWSPLRKQSLMTLTPRPLEITKMVDPLNAIILKKKSFTGISKNRNCVYQAQFSPHDQNLVLSCSGNSYASLFDIRLPSGKNQNNFLVHSGLEALTCDFNKYRPYVVATGGVDNAIRIWDIRMLNKNESATIKRTVPGQLHNSSCINEIPNAHGLAIRKVTWSPHHSNILMSASYDMTCRIWRDLSNDGAKETYKTNSTDATKGSIFNFTQHSEFVFGADWSLWGKPGYVASTAWDGNLFVWNGLG
modifications: left off: GST, N-terminal, cleaved
For the molecule B2, the “Entry into YG hydrogel lacking the KPWE motif” value in assay [3] is given as “some entry of PEX7 into YG hydrogels was observed in the absence of the KPWE motif”.
